Data: paper PMC5852006, “Microvillar and ciliary defects in zebrafish lacking an actin-binding bioactive peptide amidating enzyme” (Scientific Reports, 2018)

Target: Filamentous actin, pre-formed actin filaments derived from rabbit skeletal muscle (rabbit, UniProt P68135 1-377)
Assay: co-sedimentation; F-actin spin-down; constant 0.5 μM F-actin with varying concentrations of PAM-CD; PAM-CD in supernatants and pellets by electrophoretic analysis; Scatchard analysis of three experiments
Settings: both partners purified

B1: Peptidylglycine α-amidating monooxygenase cytosolic C-terminal domain, recombinant rat PAM(898–976) (domain or fragment)
chain: FGDHDRKLESSSGRVLGRFRGKGSGGLNLGNFFASRKGYSRKGFDRVSTEGSDQEKDEDDGTESEEEYSAPLPKPAPSS
notes: Peptidylglycine alpha-amidating monooxygenase (PAM), rat, cytosolic C-terminal domain, residues 898-976; no tag is mentioned; also called PAM-CD; rat PAM-CD; source: E. coli BL21(DE3), pET-11CD vector, purified
For B1, the Kd was 600 nM.
